According to patent US20200385439A1:
Blank lines part the entries; values can stand above or below the molecule they belong to. Ends that are not written are not given here.

Legend:
Experiment in all cases: cell-based or functional assay
[1] = target: cynomolgus monkey glucagon receptor (cynomolgus monkey)
[2] = target: rat glucagon receptor (rat) (UniProt P30082)
[3] = target: mouse GLP1 receptor (mouse) (UniProt O35659)
[4] = target: mouse glucagon receptor (mouse) (UniProt Q61606)
[5] = target: human glucagon receptor (human) (UniProt P47871)
human glucagon receptor (human), sequence (P47871 26-477): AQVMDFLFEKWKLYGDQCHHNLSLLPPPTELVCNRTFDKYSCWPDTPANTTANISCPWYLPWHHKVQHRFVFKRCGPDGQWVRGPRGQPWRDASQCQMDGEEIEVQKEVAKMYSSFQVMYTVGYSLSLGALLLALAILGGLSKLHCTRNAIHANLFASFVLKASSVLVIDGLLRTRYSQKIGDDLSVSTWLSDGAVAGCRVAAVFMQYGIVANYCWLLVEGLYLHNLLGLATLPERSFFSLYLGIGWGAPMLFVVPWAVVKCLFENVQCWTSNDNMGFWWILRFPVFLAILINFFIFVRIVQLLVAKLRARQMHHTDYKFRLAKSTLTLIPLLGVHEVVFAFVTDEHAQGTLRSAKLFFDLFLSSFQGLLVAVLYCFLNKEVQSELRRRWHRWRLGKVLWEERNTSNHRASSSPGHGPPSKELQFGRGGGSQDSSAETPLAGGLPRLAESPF

[6] = target: CRHR1
[7] = target: CRHR2
[8] = target: rhesus monkey Y2 receptor (rhesus monkey) (UniProt Q9GK74)
rhesus monkey Y2 receptor (rhesus monkey), sequence (Q9GK74 whole entry): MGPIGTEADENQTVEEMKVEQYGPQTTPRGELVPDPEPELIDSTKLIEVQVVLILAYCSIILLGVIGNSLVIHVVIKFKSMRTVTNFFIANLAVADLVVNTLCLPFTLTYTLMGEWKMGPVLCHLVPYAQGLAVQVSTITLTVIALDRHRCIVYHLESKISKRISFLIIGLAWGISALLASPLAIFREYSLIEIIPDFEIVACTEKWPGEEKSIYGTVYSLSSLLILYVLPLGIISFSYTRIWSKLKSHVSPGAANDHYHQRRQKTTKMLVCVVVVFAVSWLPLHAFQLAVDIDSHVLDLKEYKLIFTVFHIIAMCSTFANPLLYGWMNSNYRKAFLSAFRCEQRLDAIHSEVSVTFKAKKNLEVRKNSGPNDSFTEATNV

[9] = target: human Y1 receptor (human) (UniProt P25929)
human Y1 receptor (human), sequence (P25929 whole entry): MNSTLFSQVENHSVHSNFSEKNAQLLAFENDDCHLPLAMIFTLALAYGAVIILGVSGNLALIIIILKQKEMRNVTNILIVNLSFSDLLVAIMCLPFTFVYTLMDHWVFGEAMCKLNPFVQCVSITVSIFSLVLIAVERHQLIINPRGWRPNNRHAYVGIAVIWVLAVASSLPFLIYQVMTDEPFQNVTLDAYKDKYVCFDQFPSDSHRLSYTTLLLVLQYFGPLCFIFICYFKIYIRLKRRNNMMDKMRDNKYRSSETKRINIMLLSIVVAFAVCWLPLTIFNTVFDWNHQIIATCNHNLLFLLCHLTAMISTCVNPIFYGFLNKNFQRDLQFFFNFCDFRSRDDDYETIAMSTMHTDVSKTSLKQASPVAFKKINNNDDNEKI

[10] = target: mouse Y2 receptor (mouse) (UniProt P97295)
mouse Y2 receptor (mouse), sequence (P97295 whole entry): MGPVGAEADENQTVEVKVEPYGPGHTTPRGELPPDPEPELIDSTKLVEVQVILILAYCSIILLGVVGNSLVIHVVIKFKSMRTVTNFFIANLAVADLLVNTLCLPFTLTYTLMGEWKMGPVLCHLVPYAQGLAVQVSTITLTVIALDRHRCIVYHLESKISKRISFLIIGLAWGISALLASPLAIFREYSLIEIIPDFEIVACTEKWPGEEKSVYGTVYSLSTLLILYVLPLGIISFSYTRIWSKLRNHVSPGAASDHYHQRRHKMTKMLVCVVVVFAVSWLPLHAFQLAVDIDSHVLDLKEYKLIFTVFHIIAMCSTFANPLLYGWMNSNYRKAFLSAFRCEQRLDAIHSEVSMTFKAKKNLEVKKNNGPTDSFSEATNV

[11] = target: cynomolgus monkey GLP1 receptor (cynomolgus monkey) (UniProt F8V479)
[12] = target: T1, CALCR
T1 sequence (P30988 1-474, species assumed, looked up): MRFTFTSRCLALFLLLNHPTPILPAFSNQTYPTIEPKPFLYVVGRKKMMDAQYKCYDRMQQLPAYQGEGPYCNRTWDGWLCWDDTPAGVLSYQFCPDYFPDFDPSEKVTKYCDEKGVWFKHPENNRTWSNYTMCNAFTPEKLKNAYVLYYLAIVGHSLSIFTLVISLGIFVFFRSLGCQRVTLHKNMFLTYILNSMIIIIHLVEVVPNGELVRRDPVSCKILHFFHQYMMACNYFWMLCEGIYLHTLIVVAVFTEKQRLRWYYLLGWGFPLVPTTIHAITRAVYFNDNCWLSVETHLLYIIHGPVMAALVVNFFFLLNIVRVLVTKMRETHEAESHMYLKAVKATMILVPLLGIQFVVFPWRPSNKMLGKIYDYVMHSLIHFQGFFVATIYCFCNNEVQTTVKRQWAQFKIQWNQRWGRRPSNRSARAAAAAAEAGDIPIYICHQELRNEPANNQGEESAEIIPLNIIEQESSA

Dulaglutide (Fc fusion), sequence (chain): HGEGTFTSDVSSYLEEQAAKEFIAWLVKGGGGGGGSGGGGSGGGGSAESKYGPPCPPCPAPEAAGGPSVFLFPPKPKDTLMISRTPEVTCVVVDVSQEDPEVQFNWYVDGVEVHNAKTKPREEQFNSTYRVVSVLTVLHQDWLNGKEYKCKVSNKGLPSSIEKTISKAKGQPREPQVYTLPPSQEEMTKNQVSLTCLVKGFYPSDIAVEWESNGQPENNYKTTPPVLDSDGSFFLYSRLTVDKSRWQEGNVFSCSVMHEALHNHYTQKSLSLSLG
mouse GLP1 receptor (mouse), sequence (O35659 22-463): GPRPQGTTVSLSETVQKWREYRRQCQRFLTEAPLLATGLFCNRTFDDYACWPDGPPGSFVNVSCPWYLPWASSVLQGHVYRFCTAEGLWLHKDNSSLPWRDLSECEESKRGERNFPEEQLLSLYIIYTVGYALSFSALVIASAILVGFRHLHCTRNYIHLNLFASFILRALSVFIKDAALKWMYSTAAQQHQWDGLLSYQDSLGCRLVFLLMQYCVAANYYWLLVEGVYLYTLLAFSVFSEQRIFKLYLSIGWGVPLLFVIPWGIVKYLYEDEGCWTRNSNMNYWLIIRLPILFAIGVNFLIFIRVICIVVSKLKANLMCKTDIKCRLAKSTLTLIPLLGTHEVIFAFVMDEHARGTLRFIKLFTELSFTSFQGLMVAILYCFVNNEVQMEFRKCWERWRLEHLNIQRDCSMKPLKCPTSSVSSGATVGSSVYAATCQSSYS
mouse glucagon receptor (mouse), sequence (Q61606 27-485): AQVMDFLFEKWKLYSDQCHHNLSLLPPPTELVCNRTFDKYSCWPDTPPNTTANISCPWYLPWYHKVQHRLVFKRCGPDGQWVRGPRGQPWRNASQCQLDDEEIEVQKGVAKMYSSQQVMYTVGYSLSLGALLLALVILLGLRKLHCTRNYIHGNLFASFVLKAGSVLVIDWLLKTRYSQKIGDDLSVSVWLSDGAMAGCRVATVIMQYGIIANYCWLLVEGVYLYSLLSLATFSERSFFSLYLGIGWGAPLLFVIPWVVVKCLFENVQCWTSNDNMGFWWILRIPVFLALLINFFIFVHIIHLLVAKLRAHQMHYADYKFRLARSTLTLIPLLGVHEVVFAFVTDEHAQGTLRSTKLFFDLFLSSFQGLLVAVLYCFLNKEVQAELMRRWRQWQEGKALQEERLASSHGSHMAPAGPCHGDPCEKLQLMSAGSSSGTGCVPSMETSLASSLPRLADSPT
rat glucagon receptor (rat), sequence (P30082 27-485): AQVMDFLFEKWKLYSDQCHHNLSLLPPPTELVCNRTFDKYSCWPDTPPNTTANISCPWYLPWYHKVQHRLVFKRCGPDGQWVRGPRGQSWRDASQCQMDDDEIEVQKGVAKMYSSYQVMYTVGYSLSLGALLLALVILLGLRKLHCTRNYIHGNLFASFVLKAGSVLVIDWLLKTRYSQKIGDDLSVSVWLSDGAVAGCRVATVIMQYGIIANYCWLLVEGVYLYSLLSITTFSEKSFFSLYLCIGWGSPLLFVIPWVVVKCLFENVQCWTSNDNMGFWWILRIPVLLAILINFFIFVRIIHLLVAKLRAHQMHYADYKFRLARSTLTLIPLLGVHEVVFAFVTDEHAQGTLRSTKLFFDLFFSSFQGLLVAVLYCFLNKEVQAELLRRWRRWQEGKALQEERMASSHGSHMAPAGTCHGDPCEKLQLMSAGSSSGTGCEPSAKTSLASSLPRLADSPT

Molecule: Dulaglutide (Fc fusion)
EC50, receptor cAMP assay [1]: > 100 nM | EC50, receptor cAMP assay [2]: > 100 nM | EC50, receptor cAMP assay [3]: 0.035 nM | EC50, receptor cAMP assay [4]: > 100 nM | EC50, receptor cAMP assay [5]: > 100 nM

Molecule: PYY3-36 (from UniProt P10082 31-64) (peptide)
EC50, cAMP assay (LANCE) on receptor-expressing cells [8]: 0.06 nM | EC50, cAMP assay (LANCE) on receptor-expressing cells [9]: 66.4 nM | EC50, cAMP assay (LANCE) on receptor-expressing cells [10]: 0.03 nM

Molecule: Ser-8 GLP1 (from UniProt P01275 98-127) (peptide)
EC50, receptor cAMP assay [1]: > 100 nM | EC50, receptor cAMP assay [2]: > 100 nM | EC50, receptor cAMP assay [3]: 0.06 nM | EC50, receptor cAMP assay [11]: 0.08 nM | EC50, receptor cAMP assay [4]: > 100 nM

Molecule: Sauvagine (peptide; unit assumed)
Max response, cAMP assay [6]: 106% | Max response, cAMP assay [7]: 107%

Other lines, results leading:

RC50, cAMP assay [6]: 0.000308 µM | RC50, cAMP assay [7]: 0.0034 µM
Molecule: Sauvagine (peptide)

Max response, cAMP assay [12]: 101% | RC50, cAMP assay [12]: 0.000776 µM
Molecule: CGNLSTCMLGTYTQDFNKFHTFPQTAIGVGAP (peptide, UniProt P01258 85-116, looked up, species assumed, ends and bridges not checked; cysteine pairing not given here) [Calcitonin]
